Experimental data reported in PMC12273628, “In vitro reconstitution of a minimal human centrosome scaffold capable of forming and clustering microtubule asters” (Journal of Cell Science, 2025).

B1: mCherry::HSET, full length, wild type (natural protein, human, UniProt Q9BW19 1-673, looked up)
chain: MDPQRSPLLEVKGNIELKRPLIKAPSQLPLSGSRLKRRPDQMEDGLEPEKKRTRGLGATTKITTSHPRVPSLTTVPQTQGQTTAQKVSKKTGPRCSTAIATGLKNQKPVPAVPVQKSGTSGVPPMAGGKKPSKRPAWDLKGQLCDLNAELKRCRERTQTLDQENQQLQDQLRDAQQQVKALGTERTTLEGHLAKVQAQAEQGQQELKNLRACVLELEERLSTQEGLVQELQKKQVELQEERRGLMSQLEEKERRLQTSEAALSSSQAEVASLRQETVAQAALLTEREERLHGLEMERRRLHNQLQELKGNIRVFCRVRPVLPGEPTPPPGLLLFPSGPGGPSDPPTRLSLSRSDERRGTLSGAPAPPTRHDFSFDRVFPPGSGQDEVFEEIAMLVQSALDGYPVCIFAYGQTGSGKTFTMEGGPGGDPQLEGLIPRALRHLFSVAQELSGQGWTYSFVASYVEIYNETVRDLLATGTRKGQGGECEIRRAGPGSEELTVTNARYVPVSCEKEVDALLHLARQNRAVARTAQNERSSRSHSVFQLQISGEHSSRGLQCGAPLSLVDLAGSERLDPGLALGPGERERLRETQAINSSLSTLGLVIMALSNKESHVPYRNSKLTYLLQNSLGGSAKMLMFVNISPLEENVSESLNSLRFASKVNQCVIGTAQANRK
notes: HSET (KifC1), kinesin-14 family motor, human, full length; also called KifC1; mCherry::HSET(WT); source: SF9 insect cells (baculovirus), purified (Ni-NTA)

Experiments:
[1] = molecular target: GFP::CDK5RAP2 isoform B, full length, wild type (assembled into micron-scale scaffolds with anti-CM2 IgM) (human) (UniProt Q96SN8); assay: partitioning into in vitro scaffolds (confocal fluorescence microscopy); 4-component asters: 167 nM GFP::CDK5RAP2, 33 nM mBFP::γ-TuRCs, 33 nM mCherry::HSET, 13 µM HiLyte-647-labeled α/β-tubulin; 50 mM KCl, 25 mM HEPES pH 7.4, IgM+; compared with 3-component reactions without HSET
[2] = molecular target: T1, GFP::CDK5RAP2 isoform B, full length, wild type (assembled into micron-scale scaffolds with anti-CM2 IgM) (human, UniProt Q96SN8-4 1-1814); assay: partitioning into in vitro scaffolds (confocal fluorescence microscopy); 120 nM GFP::CDK5RAP2 assembled with anti-CM2 IgM, 50 nM mCherry, mCherry::HSET or mCherry::HSET(ΔIDR); 50 mM KCl, 25 mM HEPES; partition coefficient of mCherry signal; details: both partners purified
T1 construct: CDK5RAP2 (CEP215) isoform B, human, Protein ID Q96SN8-4, lacking a.a; 1576-1654 of the longest isoform; full length; In the assays the protein stood as micron-scale assemblies nucleated by an anti-CM2 IgM; also called CEP215; GFP::CDK5RAP2(WT); source: SF9 insect cells (baculovirus), purified (MBP selector beads, PreScission cleavage, Ni-NTA to remove the protease)
T1 sequence (Q96SN8 other isoform, or with tags, fused parts or gaps): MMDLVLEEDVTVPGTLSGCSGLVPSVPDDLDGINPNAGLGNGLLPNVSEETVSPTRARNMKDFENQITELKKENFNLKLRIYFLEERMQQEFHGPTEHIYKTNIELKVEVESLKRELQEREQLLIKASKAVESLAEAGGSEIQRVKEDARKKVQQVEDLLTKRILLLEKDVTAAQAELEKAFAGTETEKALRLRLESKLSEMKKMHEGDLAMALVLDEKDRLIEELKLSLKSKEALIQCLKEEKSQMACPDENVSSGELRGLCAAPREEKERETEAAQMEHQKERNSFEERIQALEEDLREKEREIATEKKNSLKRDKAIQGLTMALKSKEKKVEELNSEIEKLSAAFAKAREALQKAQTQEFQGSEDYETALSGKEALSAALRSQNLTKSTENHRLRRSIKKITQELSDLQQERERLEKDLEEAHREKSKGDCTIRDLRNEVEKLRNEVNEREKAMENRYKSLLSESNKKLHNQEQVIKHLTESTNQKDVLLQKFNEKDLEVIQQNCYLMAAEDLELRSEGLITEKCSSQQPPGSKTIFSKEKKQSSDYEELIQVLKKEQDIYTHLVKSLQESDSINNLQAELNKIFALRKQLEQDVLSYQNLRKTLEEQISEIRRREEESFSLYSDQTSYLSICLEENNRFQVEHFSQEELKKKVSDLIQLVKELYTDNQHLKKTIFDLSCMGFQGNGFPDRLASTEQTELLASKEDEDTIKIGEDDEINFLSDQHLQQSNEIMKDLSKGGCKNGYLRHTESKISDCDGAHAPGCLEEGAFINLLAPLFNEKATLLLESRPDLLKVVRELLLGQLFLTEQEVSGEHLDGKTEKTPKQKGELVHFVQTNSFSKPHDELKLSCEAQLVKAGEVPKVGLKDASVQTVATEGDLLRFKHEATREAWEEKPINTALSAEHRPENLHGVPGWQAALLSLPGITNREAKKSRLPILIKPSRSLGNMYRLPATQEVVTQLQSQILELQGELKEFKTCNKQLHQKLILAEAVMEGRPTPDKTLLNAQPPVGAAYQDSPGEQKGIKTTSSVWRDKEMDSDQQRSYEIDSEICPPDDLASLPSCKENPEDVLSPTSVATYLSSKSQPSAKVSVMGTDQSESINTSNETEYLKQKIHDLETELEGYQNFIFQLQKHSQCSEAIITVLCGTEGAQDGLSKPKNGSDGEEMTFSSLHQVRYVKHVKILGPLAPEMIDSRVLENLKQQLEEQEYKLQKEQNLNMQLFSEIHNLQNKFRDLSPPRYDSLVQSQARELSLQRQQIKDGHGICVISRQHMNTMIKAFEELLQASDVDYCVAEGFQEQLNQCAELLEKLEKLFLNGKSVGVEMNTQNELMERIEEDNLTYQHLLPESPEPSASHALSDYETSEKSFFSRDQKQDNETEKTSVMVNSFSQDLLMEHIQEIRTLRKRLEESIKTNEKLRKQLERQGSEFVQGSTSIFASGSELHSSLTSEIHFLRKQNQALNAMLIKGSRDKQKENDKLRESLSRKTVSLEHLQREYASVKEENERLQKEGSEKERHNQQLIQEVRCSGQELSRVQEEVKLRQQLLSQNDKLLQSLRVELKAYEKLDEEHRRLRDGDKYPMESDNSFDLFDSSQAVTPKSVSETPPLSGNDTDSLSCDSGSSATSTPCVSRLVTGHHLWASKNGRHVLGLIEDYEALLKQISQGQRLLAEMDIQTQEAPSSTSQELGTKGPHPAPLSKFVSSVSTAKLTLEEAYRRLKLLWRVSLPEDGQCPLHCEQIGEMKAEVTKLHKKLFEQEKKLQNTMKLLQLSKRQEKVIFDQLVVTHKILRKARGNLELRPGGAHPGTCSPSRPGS

Chain of GFP::CDK5RAP2 isoform B, full length, wild type (assembled into micron-scale scaffolds with anti-CM2 IgM) (human) (Q96SN8 other isoform, or with tags, fused parts or gaps): as above

| Molecule | fold more γ-TuRC recruited with mCherry::HSET than without [1] [fold] | binding result [2] |
| --- | --- | --- |
| human γ-tubulin ring complex tagged with blue fluorescent protein (mBFP::γ-TuRC) (from UniProt P23258 1-451) | 1.4 |  |
| B1 |  | binds |
